pKd: −log10 of the molar value.

The target in assay [1] is EGFRvIII, full length, overexpressed on glioblastoma cells (human) (UniProt P00533). The assay can be described thus: cell-based or functional assay.
Assay [2] concerns the target wild type human EGFR, full length, overexpressed on U87MG cells (human) (UniProt P00533). The assay can be described thus: cell-based or functional assay.
Assay [3] deals with recombinant human EGFRvIII protein (extracellular domain), native (human) (UniProt P00533). The assay can be described thus: ELISA Exp 2, purified mAb 1 ug/ml.
For assay [4], the target named is recombinant human wild type EGFR protein (extracellular domain), denatured (human) (UniProt P00533). The assay can be described thus: ELISA Exp 2, purified mAb 1 ug/ml.
Assay [5] concerns the target wild type human EGFR, full length, overexpressed on U87MG cells (human) (UniProt P00533). The assay can be described thus: flow cytometry dose-response on U87MG-EGFRwt cells, apparent Kd.
In assay [6] the target is EGFRvIII, full length, overexpressed on glioblastoma cells (human) (UniProt P00533). Description: flow cytometry dose-response on U87MG-EGFRvIII cells, apparent Kd.
Assay [7] deals with recombinant human wild type EGFR protein (extracellular domain), native (human) (UniProt P00533). Description: ELISA Exp 2, purified mAb 1 ug/ml.
Assay [8] has as its target recombinant human EGFRvIII protein (extracellular domain), denatured (human) (UniProt P00533). Description: ELISA Exp 2, purified mAb 1 ug/ml.
Assay [9] addresses recombinant human wild type EGFR protein (extracellular domain), native (human) (UniProt P00533). The assay can be described thus: ELISA Exp 1, mAb supernatant.
For assay [10], the target named is recombinant human EGFRvIII protein (extracellular domain), native (human) (UniProt P00533). The assay can be described thus: ELISA Exp 1, mAb supernatant.
Assay [11] has as its target recombinant human EGFRvIII protein (extracellular domain), denatured (human) (UniProt P00533). The assay can be described thus: ELISA Exp 1, mAb supernatant.
Assay [12] concerns the target recombinant human wild type EGFR protein (extracellular domain), denatured (human) (UniProt P00533). The assay can be described thus: ELISA Exp 1, mAb supernatant.

Substance Neg ctrl mIgG (antibody) registered a % internalization (pHrodo surrogate assay, vs 225 mAb) in assay [1] below 3%.

With Neg ctrl mouse mAb (antibody), the % survival (DM1 secondary-conjugate ADC surrogate assay, vs mouse IgG) in assay [2] and in assay [1] was above 98% throughout. Moreover, the ELISA absorbance 405 nm is -0.001 A405 in assay [3] and 0 A405 in assay [4].

With 225 mAb (ATCC HB-8508) (antibody), the % internalization (pHrodo surrogate assay, vs 225 mAb) worked out at 101% in assay [2] and 100% in [1]. Also, the % survival (DM1 secondary-conjugate ADC surrogate assay, vs mouse IgG) in [2] amounted to 52%; in [1], 49%. For the same substance, the pKd in assay [5] and in assay [6] was 8.66 in each case. Besides, the ELISA absorbance 405 nm was determined as 1.32 A405 in assay [7]; 1.5 A405 in assay [3]; 0.004 A405 in assay [8]; 1.2 A405 in assay [9]; 1.08 A405 in [10]; 0.001 A405 in [11]. For the same substance, in assay [12], the ELISA absorbance 405 nm is -0.01 A405.
